Measurements from US5595904.
Each block holds one substance with its values, some of them ahead of it.

Legend:
[1] = molecular target: extracellular signal-regulated kinase 1 (ERK1) (rat)
[2] = molecular target: microtubule-associated protein 2 (MAP2)
[3] = molecular target: MBP

- specific activity of ERK1 with MAP2 after dephosphorylation [1]: 4 nmol/min/mg
Substance: catalytic subunit of phosphatase 2a (enzyme)

- specific activity with MAP2 [2]: 300 nmol/min/mg
Substance: extracellular signal-regulated kinase 1 (ERK1) (enzyme)

- specific activity (phosphorylation of substrate) [3]: 1 nmol/min/mg
- specific activity (phosphorylation of substrate) [2]: 1 nmol/min/mg
Substance: recombinant ERK2 (enzyme)
